Data on seven molecules can be found in publication PMC8352653 (Cell Reports, 2021).

To fix the notation:
B1: CnC2t1p1_B10 (antibody, V domains shown)
VH: QVQLVQSGAEVKKPGSSVKVSCKASGGTFSSYAISWVRQAPGQGLEWMGGIIPIFGTANYAQKFQGRVTITADKSTSTAYMELSSLRSEDTAVYYCARVSGYDSSGYWGDYWGQGTLVTVSS
VL: EIVLTQSPATLSLSPGERATLSCRASQSVSSYLAWYQQKPGQAPRLLIYDASNRATGIPARFSGSGSGTDFTLTISSLEPEDFAVYYCQQRSNWPPALTFGGGTKVEIK
B2: COV2-2531 (antibody, V domains shown)
VH: QVQLQESGPGLVKPSETLSLTCSVSGGSIRSYFWNWVRQPPGKGLEWIGYIYYSGSTNYKPSFKSRVTISLDTSKNQISLKLSSVTAADTAVYYCARATWLRDAFGIWGQGTMVTVSS
VL: NFMLTQPHSVSESPGKTVTISCTGNSGSIASNYVQWYQQRPGSAPTTVIYEDSQRPSGVPDRFSGSIDSSSNSASLTISGLKTEDEADYYCQSFDSGNVVFGGGTKLTVL
B3: C126 (antibody, V domains shown)
VH: QVQLQESGPGLVKPSETLSLSCAVSGGSIGSYFWSWIRQPPGKGLEWIGYLHYSGSTNYNPSLKSRVTISVDTSKNQFSLKLSSVTAADTAVYYCARLQWLRGAFDIWGQGTMVTVSS
VL: NFMLTQPHSVSESPGKTVTISCTGSSGSIASNYVQWYQQRPGSAPTTVINEDNQRPSGVPDRFSGSIDSSSNSASLTISGLKTEDEADYYCQSYDSSNLVFGGGTKLTVL
B4: COV2-2002 (antibody, V domains shown)
VH: EVQLVESGGGLVQPGGSLRLSCAASGFTFSFYWMSWVRQAPGKGLEWVANIKQDGSEKYYVDSVKGRSTISRDNAKNSLYLQMNSLRAEDTAVYYCARVGSSSWYFDYWGQGTLVTVSS
VL: not shown
B5: COV2-2333 (antibody, V domains shown)
VH: EVQLVESGGGLVQPGGSLRLSCAASGFTFSIYWMSWVRQAPGKGLQWVANIKQDASEKYYVDSVKGRFTISRDNAKNSLYLQMNSLRAEDTAVYYCARLGGSSWHFDYWGQGTLVTVSS
VL: SYELTQPPSVSVSPGQTASITCSGDKLGDKYSSWYQQKPGQSPVLVIYEDTKRPSGIPERFSGSNSGNTATLTISGTQAMDEADYYCQAWSSSTAVFGGGTKLTVL
B6: C126 Fab (Fab, V domains shown)
VH: QVQLQESGPGLVKPSETLSLSCAVSGGSIGSYFWSWIRQPPGKGLEWIGYLHYSGSTNYNPSLKSRVTISVDTSKNQFSLKLSSVTAADTAVYYCARLQWLRGAFDIWGQGTMVTVSS
VL: NFMLTQPHSVSESPGKTVTISCTGSSGSIASNYVQWYQQRPGSAPTTVINEDNQRPSGVPDRFSGSIDSSSNSASLTISGLKTEDEADYYCQSYDSSNLVFGGGTKLTVL
B7: COV2-2531 Fab (Fab, V domains shown)
VH: QVQLQESGPGLVKPSETLSLTCSVSGGSIRSYFWNWVRQPPGKGLEWIGYIYYSGSTNYKPSFKSRVTISLDTSKNQISLKLSSVTAADTAVYYCARATWLRDAFGIWGQGTMVTVSS
VL: NFMLTQPHSVSESPGKTVTISCTGNSGSIASNYVQWYQQRPGSAPTTVIYEDSQRPSGVPDRFSGSIDSSSNSASLTISGLKTEDEADYYCQSFDSGNVVFGGGTKLTVL

The first assay deals with full-length SARS-CoV-2 S protein expressed in HEK293T cells (SARS-CoV-2, Wuhan-Hu-1, UniProt P0DTC2). Briefly: flow cytometry on cells. On the technique in general: A flow cytometer gives signals particle by particle.
In the case of B1, the binding result is “binds”.

Consider B2, for which the binding result is “binds”.

B3: the binding result is on record as “binds”.

On to B4, for which the binding result is “binds”.

In the case of B5, the binding result is on record as “binds”.

The next assay has as its target variant of S6P_(ecto) protein containing a C-terminal Twin-Strep-tag (SARS-CoV-2, Wuhan-Hu-1 (assumed), UniProt P0DTC2, stabilised). Nature of the assay: negative stain electron microscopy.
Consider B6, for which the binding result is “binds”.

Consider B7, for which the binding result was “binds”.
